Test [1] concerns the target T1, H-2K^b molecules on RMA-S cells (mouse, UniProt P01901 22-369; P01887 21-119).
T1 construct: whole, on cells
T1 sequence (MHC heavy): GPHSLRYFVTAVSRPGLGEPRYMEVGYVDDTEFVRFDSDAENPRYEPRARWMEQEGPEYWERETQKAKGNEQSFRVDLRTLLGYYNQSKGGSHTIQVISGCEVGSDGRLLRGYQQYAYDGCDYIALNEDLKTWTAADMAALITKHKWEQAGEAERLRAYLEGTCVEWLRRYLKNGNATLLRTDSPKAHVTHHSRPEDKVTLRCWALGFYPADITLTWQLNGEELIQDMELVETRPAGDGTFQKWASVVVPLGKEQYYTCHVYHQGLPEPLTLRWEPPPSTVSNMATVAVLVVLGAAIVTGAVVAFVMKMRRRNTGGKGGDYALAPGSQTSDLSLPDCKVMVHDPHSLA
T1 sequence: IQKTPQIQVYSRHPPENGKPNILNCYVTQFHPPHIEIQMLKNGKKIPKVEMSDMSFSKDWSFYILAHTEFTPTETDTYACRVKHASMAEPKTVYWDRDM
The test can be described thus: RMA-S MHC class I stabilisation assay, flow cytometry with anti-H-2K^b antibody. For orientation: Flow cytometry measures light scatter and fluorescence of single cells or particles in a stream.

In test [2] the target is T2, H-2D^b molecules on RMA-S cells (mouse, UniProt P01899 25-362; P01887 21-119).
T2 construct: whole, on cells; also called MHC class I
T2 sequence (MHC heavy, looked up): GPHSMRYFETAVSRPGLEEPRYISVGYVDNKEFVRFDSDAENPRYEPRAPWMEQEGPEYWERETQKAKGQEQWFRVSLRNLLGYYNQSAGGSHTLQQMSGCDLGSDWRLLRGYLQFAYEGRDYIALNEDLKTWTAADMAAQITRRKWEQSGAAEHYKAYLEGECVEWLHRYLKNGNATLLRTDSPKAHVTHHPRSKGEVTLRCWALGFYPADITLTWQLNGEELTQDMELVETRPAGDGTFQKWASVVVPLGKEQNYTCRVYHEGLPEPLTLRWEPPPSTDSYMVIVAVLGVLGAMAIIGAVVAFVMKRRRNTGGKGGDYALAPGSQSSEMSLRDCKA
T2 sequence (looked up): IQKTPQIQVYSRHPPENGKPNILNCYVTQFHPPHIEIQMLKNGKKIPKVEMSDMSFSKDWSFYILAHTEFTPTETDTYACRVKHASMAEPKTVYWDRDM
Description: RMA-S MHC class I stabilisation assay, 10 µM peptide, flow cytometry with anti-H-2D^b antibody, medium control.
Description: We evaluated the MHC class I binding affinity of native and KSS-elongated E7 peptides. RMA-S cells, a mouse lymphoma cell line at a concentration of 5×10⁵ cells/ml were incubated overnight at 27° C. with native E7 or KSS-E7 peptide (10 μM). Cells incubated with medium were used as a control. Cells were then incubated for 2 h at 37° C. After washes, cells were stained with fluorescently conjugated monoclonal antibodies against H-2D^b or H-2K^b molecules on the cell surface prior to flow cytometry analysis.

B1: KSS-E7 peptide (KSS (lysine-serine-serine)-elongated E7 peptide without the lipid chain) (peptide)
peptide: KSSRAHYNIVTF
notes: Not lipidated; added at 10 uM to RMA-S cells; also called KSS-elongated E7 peptide
As to B1, the binding result in test [1] is listed as “no binding (tested: 10 µM)”. In test [2], the “fold increase in the mean fluorescence (H-2D^b on RMA-S cells)” value was determined as 8 fold.

B2: native E7 peptide (HPV 16 E7 protein, amino acid 49-57, H-2D^b restricted CTL epitope) (peptide)
peptide: RAHYNIVTF
notes: Synthetic free peptide, added at 10 uM to RMA-S cells; also called E7 antigen
For B2, the binding result in test [1] is reported as “no binding (tested: 10 µM)”. The “fold up-regulation of H-2D^b molecules on RMA-S cells compared to the control” value in test [2] amounted to 4 fold.
